Results taken from patent US20250361320A1 (Bristol-Myers Squibb, published 2025).
Residue numbers refer to the chain shown, from its start.

T1: human CEACAM5 on cells (MKN45, BxPC-3, Ls174T, HCT116-huCEACAM5) (human, UniProt P06731 35-685)
T1 sequence: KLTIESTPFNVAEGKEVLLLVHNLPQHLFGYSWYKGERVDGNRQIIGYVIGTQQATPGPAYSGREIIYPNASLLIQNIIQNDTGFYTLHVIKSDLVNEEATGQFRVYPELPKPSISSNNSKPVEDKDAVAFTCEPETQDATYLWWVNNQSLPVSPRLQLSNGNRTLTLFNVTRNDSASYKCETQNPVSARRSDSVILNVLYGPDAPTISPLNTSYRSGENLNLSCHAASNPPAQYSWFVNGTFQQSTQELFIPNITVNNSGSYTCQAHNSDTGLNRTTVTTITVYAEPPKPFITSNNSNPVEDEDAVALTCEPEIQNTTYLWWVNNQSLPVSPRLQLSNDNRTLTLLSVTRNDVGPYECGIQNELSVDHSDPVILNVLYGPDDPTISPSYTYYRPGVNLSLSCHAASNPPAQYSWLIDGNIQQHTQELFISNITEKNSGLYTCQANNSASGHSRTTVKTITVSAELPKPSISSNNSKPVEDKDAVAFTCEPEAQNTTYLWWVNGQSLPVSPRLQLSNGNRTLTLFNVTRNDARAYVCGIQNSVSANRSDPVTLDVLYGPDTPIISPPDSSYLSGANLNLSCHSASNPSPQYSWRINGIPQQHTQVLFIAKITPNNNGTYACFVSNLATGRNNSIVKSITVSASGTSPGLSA

T2: cynomolgus CEACAM5 on cells (HCT116-cyCEACAM5) (cynomolgus (Macaca fascicularis))
T2 construct: also called cynoCEACAM-5
T2 chain: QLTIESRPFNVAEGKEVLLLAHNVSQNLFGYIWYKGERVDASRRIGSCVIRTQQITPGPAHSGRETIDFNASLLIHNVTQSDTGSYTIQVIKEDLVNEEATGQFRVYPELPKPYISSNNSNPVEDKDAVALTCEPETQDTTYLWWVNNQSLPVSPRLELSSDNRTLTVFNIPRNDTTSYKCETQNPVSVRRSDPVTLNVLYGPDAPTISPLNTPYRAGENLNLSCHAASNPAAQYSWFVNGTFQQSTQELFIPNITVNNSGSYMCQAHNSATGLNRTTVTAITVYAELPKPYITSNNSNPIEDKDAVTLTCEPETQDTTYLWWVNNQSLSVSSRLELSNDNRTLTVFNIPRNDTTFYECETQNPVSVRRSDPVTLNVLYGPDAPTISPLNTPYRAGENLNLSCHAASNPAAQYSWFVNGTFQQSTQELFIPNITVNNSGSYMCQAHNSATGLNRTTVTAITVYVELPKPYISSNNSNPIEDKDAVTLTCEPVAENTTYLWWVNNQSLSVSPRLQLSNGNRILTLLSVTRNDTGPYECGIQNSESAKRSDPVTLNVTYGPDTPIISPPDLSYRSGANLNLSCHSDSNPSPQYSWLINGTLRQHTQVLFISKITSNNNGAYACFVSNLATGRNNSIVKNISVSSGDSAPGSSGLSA

B1: MBP003 (hIgG1 progeny of MBN001) (antibody, V domains shown)
VH: QVQLVESGGGVVQPGRSLRLSCAASGITFSSHGMHWVRQAPGKGLEWVTFISYDGSYKSYVDSVKGRFTISRDNSKNTLYLQMNSLRAEDTAVYYCATGLTGTGAFDIWGQGTMVTVSS
VL: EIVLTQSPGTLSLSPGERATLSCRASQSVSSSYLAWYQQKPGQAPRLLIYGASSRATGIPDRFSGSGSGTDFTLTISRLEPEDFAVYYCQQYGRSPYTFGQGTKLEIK
B2: MBP010 (hIgG1.3f progeny of MBN001) (antibody, V domains shown)
VH: B1 VH with G55S
VL: EIVLTQSPGTLSLSPGERATLSCRASQSVSSSYLAWYQQKPGQAPRLLIYGASSRATGIPDRFSGSGSGTDFTLTISRLEPEDFAVYYCQQNKRSPYTFGQGTKLEIK
B3: MBP009 (hIgG1.3f progeny of MBN001) (antibody, V domains shown)
VH: B1 VH with T28Y
VL: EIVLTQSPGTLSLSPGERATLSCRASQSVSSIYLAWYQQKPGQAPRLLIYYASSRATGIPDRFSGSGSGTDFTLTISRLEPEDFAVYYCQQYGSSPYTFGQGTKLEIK
B4: MBP007 (hIgG1.3f progeny of MBN001) (antibody, V domains shown)
VH: B1 VH with T28Y, F106N
VL: B2 VL with R94P
B5: MBP011 (hIgG1.3f progeny of MBN001) (antibody, V domains shown)
VH: B1 VH with Y57I
VL: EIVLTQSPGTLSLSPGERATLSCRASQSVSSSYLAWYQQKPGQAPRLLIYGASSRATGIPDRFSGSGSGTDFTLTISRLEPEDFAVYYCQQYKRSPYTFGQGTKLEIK
B6: MBP008 (hIgG1.3f progeny of MBN001) (antibody, V domains shown)
VH: B1 VH with G104N, F106L
VL: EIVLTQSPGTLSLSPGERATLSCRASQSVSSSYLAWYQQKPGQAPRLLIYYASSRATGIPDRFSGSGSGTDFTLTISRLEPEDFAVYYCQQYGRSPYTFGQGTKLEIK
B7: MBP006 (hIgG1.3f progeny of MBN001) (antibody, V domains shown)
VH: B1 VH with K58I, F106N
VL: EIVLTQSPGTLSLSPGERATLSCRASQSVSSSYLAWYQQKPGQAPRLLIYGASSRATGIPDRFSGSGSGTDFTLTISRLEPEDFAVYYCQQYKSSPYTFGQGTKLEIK
B8: MBP005 (hIgG1.3f progeny of MBN001) (antibody, V domains shown)
VH: B1 VH with T28Y
VL: not shown
B9: MBP004 (hIgG1.3f progeny of MBN001) (antibody, V domains shown)
VH: B1 VH
VL: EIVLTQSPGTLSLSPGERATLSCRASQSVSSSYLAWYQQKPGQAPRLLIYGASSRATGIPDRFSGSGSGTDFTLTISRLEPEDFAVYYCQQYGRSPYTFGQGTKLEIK
B10: MBP002 (hIgG1 progeny of MBN001) (antibody, V domains shown)
VH: B1 VH with G104N, F106L
VL: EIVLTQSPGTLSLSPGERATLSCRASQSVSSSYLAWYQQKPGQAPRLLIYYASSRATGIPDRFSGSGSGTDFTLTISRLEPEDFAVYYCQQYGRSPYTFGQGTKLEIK
B11: anti-CEACAM5 mAb MBN001 (antibody, V domains shown)
VH: B1 VH with S7T, A40S, T69A, A88P
VL: not shown
notes: also called MBN001 parent; bin 1 lead

The binders below were run against T1, human CEACAM5 on cells (MKN45, BxPC-3, …) (assay: cell-based or functional assay).
B1 was tested, and the “Ls174T 5-day cytotoxicity (AUC), antibody with cytotoxic payload” value (“Ls174T 5-day cytotoxicity (AUC)” for short) was 18500 and the “MKN45 5-day cytotoxicity (AUC), antibody with cytotoxic payload” value (“MKN45 5-day cytotoxicity (AUC), antibody” below) was 24400.
With B2 the “Ls174T 5-day cytotoxicity (AUC)” value was 910 and the “MKN45 5-day cytotoxicity (AUC), antibody” value was 1360.
B3 was tested, and the “Ls174T 5-day cytotoxicity (AUC)” value was 1040 and the “MKN45 5-day cytotoxicity (AUC), antibody” value was 2200.
B4 was tested, and the “Ls174T 5-day cytotoxicity (AUC)” value was 834 and the “MKN45 5-day cytotoxicity (AUC), antibody” value was 2070.
B5 was tested, and the “Ls174T 5-day cytotoxicity (AUC)” value was 939 and the “MKN45 5-day cytotoxicity (AUC), antibody” value was 1770.
For B6, the “Ls174T 5-day cytotoxicity (AUC)” value was 1140 and the “MKN45 5-day cytotoxicity (AUC), antibody” value was 2200.
B7 was tested, and the “Ls174T 5-day cytotoxicity (AUC)” value was 902 and the “MKN45 5-day cytotoxicity (AUC), antibody” value was 2440.
In the case of B8, the “Ls174T 5-day cytotoxicity (AUC)” value is reported as 964 and the “MKN45 5-day cytotoxicity (AUC), antibody” value is reported as 2350.
B9 was tested, and the “Ls174T 5-day cytotoxicity (AUC)” value was 865 and the “MKN45 5-day cytotoxicity (AUC), antibody” value was 2380.
With B10 the “Ls174T 5-day cytotoxicity (AUC)” value was 18900 and the “MKN45 5-day cytotoxicity (AUC), antibody” value was 24100.

Biological target: T2, cynomolgus CEACAM5 on cells …
Test: cell binding, HCT-116 cyCEACAM5 cells
In the case of B11, the EC50 is reported as 82.2 nM.
